For the assay, the target named is Trypsin (UniProt P00761). Kind of assay: enzyme inhibition assay.

pKi: −log10 of the molar value.

A word on the pKi: it is −log10 of the Ki, conventionally taken in molar units. Higher therefore signals a low Ki. Take “C16-EETI-II (palmitoyl, C16:0, fatty acylated EETI-II) (peptide)”: the pKi is 9.88.

Consider “C18-EETI-II (stearoyl, C18:0, fatty acylated EETI-II; octadecanedioic acid conjugate) (peptide)”, for which the pKi was 9.90.

As to “C12-EETI-II (lauroyl, C12:0, fatty acylated EETI-II) (peptide)”, the pKi was 9.99.

Regarding “C14-EETI-II (myristoyl, C14:0, fatty acylated EETI-II) (peptide)”, the pKi is 10.00.

The values are drawn from article PMC8529511.
